Test results reported in paper PMC8454712 (Biochemical Journal, 2021).

Biological target: Growth factor receptor-bound protein 2 (Grb2), HepG2 cells (human (endogenous in HepG2), UniProt P62993 1-217)
Assay: co-IP

fold change of the co-precipitated interaction, T2D condition against control: 1.35 fold
B1: NADPH oxidase NOX4, HepG2 cells (natural protein, human (endogenous in HepG2), UniProt Q9NPH5 1-578, looked up)
chain: MAVSWRSWLANEGVKHLCLFIWLSMNVLLFWKTFLLYNQGPEYHYLHQMLGLGLCLSRASASVLNLNCSLILLPMCRTLLAYLRGSQKVPSRRTRRLLDKSRTFHITCGVTICIFSGVHVAAHLVNALNFSVNYSEDFVELNAARYRDEDPRKLLFTTVPGLTGVCMVVVLFLMITASTYAIRVSNYDIFWYTHNLFFVFYMLLTLHVSGGLLKYQTNLDTHPPGCISLNRTSSQNISLPEYFSEHFHEPFPEGFSKPAEFTQHKFVKICMEEPRFQANFPQTWLWISGPLCLYCAERLYRYIRSNKPVTIISVMSHPSDVMEIRMVKENFKARPGQYITLHCPSVSALENHPFTLTMCPTETKATFGVHLKIVGDWTERFRDLLLPPSSQDSEILPFIQSRNYPKLYIDGPFGSPFEESLNYEVSLCVAGGIGVTPFASILNTLLDDWKPYKLRRLYFIWVCRDIQSFRWFADLLCMLHNKFWQENRPDYVNIQLYLSQTDGIQKIIGEKYHALNSRLFIGRPRWKLLFDEIAKYNRGKTVGVFCCGPNSLSKTLHKLSNQNNSYGTRFEYNKESFS
